Laboratory results taken from patent US5591427A, “Human Interleukin-3(Il-3) variants and their use to promote or antagonize IL-3-mediated processes” (Medvet Science Pty. Ltd., priority 1979, dated 1997).

Experiments:
[1] = test system: chronic myeloid leukaemic (CML) cells; experiment: Proliferation of chronic myeloid leukaemic (CML) cells, [3H] thymidine incorporation; format: cell-based, human
Protocol: (b ) Proliferation of chronic myeloid leukaemic (CML) cells: Primarily CML cells from one patient were selected for their ability to incorporate [^3 H] thymidine in response to IL-3 as described (Lopez el. al., supra ). Briefly, CML cells were placed at 2×10^5 cells/mL fresh medium containing different concentrations of IL-3. Cells were incubated for 24 hours in a flat bottom 96-well NUNCLON plates (2×10^4 cells/well) before being pulsed with [^3 H] thymidine (0.5 μCi/well) for four more hours at 37° C. The cells were then harvested onto glass filters with a Titertek automated cell harvester and counted into a Beckman liquid scintillation counter. Data are expressed in cpm, and each point is the mean of six replicates.

[2] = target: T1, IL-3 high affinity receptor of monocytes (Homo sapiens, UniProt P26951+P32927); experiment: Competition for 125I-IL-3 binding to the high affinity receptor of monocytes; conditions: high affinity receptor on monocytes
T1 construct: endogenous in cells; host or cells: freshly purified human peripheral blood monocytes
T1 sequence (P26951 19-378): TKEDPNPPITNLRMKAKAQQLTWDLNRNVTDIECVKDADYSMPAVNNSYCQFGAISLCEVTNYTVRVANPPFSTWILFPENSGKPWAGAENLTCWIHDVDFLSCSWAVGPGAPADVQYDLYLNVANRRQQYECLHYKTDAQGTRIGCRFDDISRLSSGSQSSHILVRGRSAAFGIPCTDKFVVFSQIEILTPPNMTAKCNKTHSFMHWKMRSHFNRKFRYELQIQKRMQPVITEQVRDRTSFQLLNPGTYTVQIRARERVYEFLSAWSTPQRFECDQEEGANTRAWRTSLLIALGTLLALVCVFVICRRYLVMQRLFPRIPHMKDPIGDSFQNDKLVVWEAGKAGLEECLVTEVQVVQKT
T1 sequence (P32927 17-897): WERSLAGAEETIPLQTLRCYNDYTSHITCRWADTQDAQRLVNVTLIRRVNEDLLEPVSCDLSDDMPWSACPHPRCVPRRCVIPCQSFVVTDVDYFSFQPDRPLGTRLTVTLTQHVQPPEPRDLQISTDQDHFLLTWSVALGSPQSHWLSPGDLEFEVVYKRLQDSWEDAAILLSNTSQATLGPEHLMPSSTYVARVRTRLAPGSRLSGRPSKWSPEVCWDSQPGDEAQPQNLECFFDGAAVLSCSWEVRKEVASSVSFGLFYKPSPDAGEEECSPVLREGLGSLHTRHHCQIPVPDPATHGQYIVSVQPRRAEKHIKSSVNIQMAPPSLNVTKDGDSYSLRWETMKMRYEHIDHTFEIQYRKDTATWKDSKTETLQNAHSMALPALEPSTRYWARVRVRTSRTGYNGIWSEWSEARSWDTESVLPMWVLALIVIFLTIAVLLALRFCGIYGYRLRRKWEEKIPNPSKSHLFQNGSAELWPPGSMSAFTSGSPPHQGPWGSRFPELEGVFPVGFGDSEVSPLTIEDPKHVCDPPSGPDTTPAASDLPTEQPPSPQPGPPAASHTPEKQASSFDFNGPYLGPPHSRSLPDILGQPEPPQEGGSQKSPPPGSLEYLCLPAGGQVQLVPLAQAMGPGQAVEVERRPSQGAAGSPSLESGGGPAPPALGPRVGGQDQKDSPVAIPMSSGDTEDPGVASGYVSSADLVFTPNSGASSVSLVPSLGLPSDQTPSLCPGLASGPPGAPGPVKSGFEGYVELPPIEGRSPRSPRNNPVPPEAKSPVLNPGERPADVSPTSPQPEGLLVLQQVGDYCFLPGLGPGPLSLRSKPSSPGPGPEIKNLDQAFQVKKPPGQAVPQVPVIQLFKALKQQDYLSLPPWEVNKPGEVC
Protocol: (a) Radioiodination of hIL-3: rh IL-3 (gift from Dr. L. Park, Immunex Corporation, Seattle, Wash.) was radioiodinated by the ICI method as previously described (Contreras et. al., supra). Iodinated protein was separated from free ^125 I by chromatography on a Sephadex G-25 PD 10 column (Pharmacia, Uppsala, Sweden) equilibrated in phosphate-buffered saline (PBS) containing 0.02% Tween 20, and stored at 4° C. for up to 4 weeks. Before use, the iodinated protein was purified from Tween and nonprotein-associated radioactivity by cation exchange chromatography on a 0.3-ml CM-Sepharose CL-6B column (Pharmacia) and stored at 4° C. for up to 5 days.
(b) Competition Binding assay. Freshly purified monocytes were suspended in binding medium consisting of RPMI 1640 supplemented with 20 mmol/L/HEPES and 0.5% bovine serum albumin (BSA). […] Cell suspensions were then overlaid on 0.2 mL FCS at 4° C. and centrifuged for 30 seconds at a maximum speed in a Beckman Microfugre 12. The tip of each tube was cut off above the visible cell pellet and counted in a Packard Auto-Gamma 5650 (Downer's Grove, Ill). The results are expressed as Percent competition where 100% is the competition observed in the presence of 100 fold excess native IL-3.

monocytes = experiment: Stimulation of human monocyte adherence (51Cr adhesion assay); format: cell-based
Protocol: (a) Monocyte purification. Monocytes were purified from the peripheral blood of normal donors, obtained from the Adelaide Red Cross Transfusion Service, as previously described (Elliott et. al., 1990, J. Immunol., 145, 167-171). In brief, mononuclear cells were prepared by centrifugation of whole blood on lymphoprep cushions (Nyegaard, Oslo, Norway) and washed twice in HBSS, 0.02% EDTA, 0.1% heat inactivated FCS (Flow Laboratories, North Ryde, Australia) and monocytes were purified in a Beckman J-6M/E elutriator using the Sanderson chamber, a flow rate of 12 ml/min and a constant rotor speed of 2050 rpm. Cells remaining in the chamber after 30 min were collected, washed twice in HBSS, and used immediately. Using these methods, monocyte purity as assessed by morphology and nonspecific-esterase staining was always >90% and usually >95%. The major contaminating cell types were lymphocytes and granulocytes (principally basophils).
(b) Adhesion assay. Adhesion was measured by an isotopic method essentially as described (Elliott et. al., supra). In brief, purified monocytes (0.5 to 1×10^8) were resuspended in 1 ml RPMI 1640 with 0.1% FCS and antibiotics and incubated for 30 min at 37° C. with 500 μCi^51 Cr in the form of sodium chromate (Amersham International., Buckinghamshire, England). Cells were washed thrice in RPMI 1640 and resuspended in culture medium consisting of RPMI 1640, 10% FCS, antibiotics, and 0.2% sodium bicarbonate. For measurement of adhesion, 1 to 2.5×10^5 monocytes were aliquotted per well in 96-well microtitre plates (Nunc, Karnstrup, Denmark) together with stimuli or control medium to a total volume of […], and incubated for the indicated periods. […] At harvest, samples of supernatant were taken to assess spontaneous ^51 Cr release (usually <10% of cell-associated radioactivity), wells were washed three times with RPMI 1640 at 37° C., and residual adherent cells lysed in 10 mM Tris-hydrochloride, and 1% Nonident p40 detergent (Sigma). Lysates were transferred to tubes and counted in a Packard auto-gamma 5650. Percent adherence was calculated according to the formula: [formula]

[3] = concentration of IL-3 mutant giving 50% of biological activity compared to that of wild type IL-3

B1: M37: human IL-3 mutant, Asp 101 replaced by Ala and Lys 116 by Val (protein, UniProt P08700 20-152, looked up, variant D101A K116V)
Interleukin-3: APMTQTTPLKTSWVNCSNMIDEIITHLKQPPLPLLDFNNLNGEDQDILMENNLRRPNLEAFNRAVKSLQNASAIESILKNLLPCLPLATAAPTRHPIHIKAGDWNEFRRKLTFYLVTLENAQAQQTTLSLAIF
With B1 the “stimulation of CML cell proliferation” value ([1]; FIG. 2, FIG. 8) was “more potent than the wild type IL-3”, the “Relative biological activity, PROLIFERATION CML” value [1, 3] was 1694 and the “increase in biological activity versus wild type” value ([1]; summary statement over the functional assays of the Table (colonies, CML, monocyte)) was 15-20 fold. The “fold higher binding affinity than wild-type IL-3” value [2] was 10-15 fold, the “fold higher binding affinity than wild-type IL-3” value ([2]; listed as IL-3 (Ala^101, Val^116)) was 16 fold and the “stimulation of monocyte adherence” value (monocytes; FIG. 3) was “more potent than the wild type IL-3”. The “Relative biological activity, MONOCYTE” value (monocytes; [3]) was 2100.
